The text below walks through data of US20190263932A1 (Eli Lilly, published 2019).

Assay [1] concerns the target T1, recombinant human TrkA protein (human, UniProt P04629-2 34-407, limits assumed). The assay can be described thus: NGF-blocking ELISA on coated human TrkA, 100 nM btNGF; mAb 0.08 nM. How it is done: (§1) Each row of a 96-well high-binding clear-bottom microtiter plate (Microlon, #655061) was coated overnight at 4° C. with 100 μL/well of recombinant human TrkA protein, diluted to 2 μg/mL in phosphate buffered saline, pH 7.2 (PBS). The next day, the coating solution was removed, and the plate was blocked with 150 μL of Casein-PBS (Thermo Scientific, #37528) for 1 hour at 25° C. with gentle shaking. The plate was then washed three times with PBS supplemented with 0.05% Tween20 (PBST). A two-fold dilution series of exemplified antibodies, along with IgG4 and IgG1 isotype control antibodies, was generated starting at 20 nM in Casein-PBS. 100 μL of the each dilution series sample was added to a well for 30 min at 37° C. with gentle shaking. The plate was then washed three times with PBST. […] The plate was then washed three times with PBST. A 1:3500 dilution of a 1 mg/mL stock solution of streptavidin-HRP (Thermo Scientific, #21130) in Casein-PBS was prepared and […] was added to each well for 20 min at 37° C. with gentle shaking. The plate was washed three times with PBST. […] The reaction was stopped by addition of 100 μL of 1M H₃PO₄ to each well. The absorbance at 450 nm (Abs450) was measured using a SpectraMax 340PC plate reader (Molecular Devices).
In general terms: An ELISA detects its analyte on a solid surface through an enzyme-linked reagent.

For assay [2], the target named is T2, Rat TrkA Extracellular Domain (33-411) (rat, UniProt P35739 33-417).
T2 construct: SPR analyte
The assay can be described thus: SPR, mAb captured on Protein A chip, 37 C. How it is done: (§2) The binding kinetics and affinity of exemplified antibodies to human, cynomolgus monkey, rat, mouse, and rabbit TrkA are determined as described below using a surface plasmon resonance assay on a BIACORE™ 8K instrument (GE Healthcare). Two different isoforms of human TrkA (isoform 1 and isoform 2) are evaluated along with human TrkB and human TrkC. […] All FC2 on all eight channels are set to capture approximately 89 response units (RU) of antibody at a flow rate of 10 μL/min. The antibody sample is prepared at 1 μg/mL by dilution into the running buffer. […] Before the analysis cycle, the chip is regenerated with 3 injections of glycine (pH ˜1.5) at 100 μL/min for a contact time of 15 seconds on FC1 and FC2 in order to clean the surface of the chip.
In general terms: SPR reads the build-up and loss of mass on a sensor chip optically.

The target in assay [3] is T3, Cynomolgus monkey TrkA Extracellular Domain (59-434) (cynomolgus monkey, UniProt P04629 35-414 (human entry)).
T3 construct: SPR analyte
T3 chain: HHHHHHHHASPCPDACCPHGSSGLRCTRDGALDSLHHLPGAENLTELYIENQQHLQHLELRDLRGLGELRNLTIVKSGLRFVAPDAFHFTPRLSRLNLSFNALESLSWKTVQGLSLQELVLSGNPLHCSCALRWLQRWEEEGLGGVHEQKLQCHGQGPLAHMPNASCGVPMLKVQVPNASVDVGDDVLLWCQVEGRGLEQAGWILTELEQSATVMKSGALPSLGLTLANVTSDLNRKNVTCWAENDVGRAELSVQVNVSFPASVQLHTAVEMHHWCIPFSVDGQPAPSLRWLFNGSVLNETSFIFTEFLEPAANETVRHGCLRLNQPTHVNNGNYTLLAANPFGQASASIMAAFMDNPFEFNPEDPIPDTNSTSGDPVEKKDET
The assay can be described thus: SPR, mAb captured on Protein A chip, 37 C. How it is done: as §2

Assay [4] deals with T4, Mouse TrkA Extracellular Domain (33-417 with 396-401 deletion) (mouse, UniProt Q3UFB7 34-417).
T4 construct: SPR analyte
The assay is described as follows: SPR, mAb captured on Protein A chip, 37 C. How it is done: as §2

In assay [5] the target is T5, Rabbit TrkA Extracellular Domain (33-414) (rabbit).
T5 construct: SPR analyte; not shown: C-terminal polyhistidine tag (unknown length)
T5 chain: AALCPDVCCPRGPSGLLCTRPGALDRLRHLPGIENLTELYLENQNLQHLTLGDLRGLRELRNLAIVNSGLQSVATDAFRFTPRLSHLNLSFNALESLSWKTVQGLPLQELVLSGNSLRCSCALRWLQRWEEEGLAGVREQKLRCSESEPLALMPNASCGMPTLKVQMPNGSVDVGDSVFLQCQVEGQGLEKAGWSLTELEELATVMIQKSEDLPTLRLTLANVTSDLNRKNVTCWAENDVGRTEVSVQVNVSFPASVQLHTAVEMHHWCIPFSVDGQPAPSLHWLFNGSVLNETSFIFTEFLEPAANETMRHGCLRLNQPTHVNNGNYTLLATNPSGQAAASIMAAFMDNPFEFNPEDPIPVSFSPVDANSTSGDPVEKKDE
The assay is described as follows: SPR, mAb captured on Protein A chip, 37 C. How it is done: as §2

The target of assay [6] is T6, Human TrkA Extracellular Domain Isoform 2 (33-408) (human, UniProt P04629 33-414).
T6 construct: SPR analyte; also called Human TrkA Isoform 2
The assay is described as follows: SPR, mAb captured on Protein A chip, 37 C. How it is done:
as §2

Assay [7] has as its target T7, Human TrkA Extracellular Domain Isoform 1 (33-414) (human, UniProt P04629 33-414).
T7 construct: SPR analyte; also called Human TrkA Isoform 1
The assay can be described thus: SPR, mAb captured on Protein A chip, 37 C. Here is the method: as §2

The target of assay [8] is T1, recombinant human TrkA protein. The assay can be described thus: NGF-blocking ELISA on coated human TrkA, 100 nM btNGF; mAb 0.04 nM. How it is done:
as §1

Assay [9] shares this target. The assay is described as follows: NGF-blocking ELISA on coated human TrkA, 100 nM btNGF; mAb 0.02 nM. Here is the method:
as §1

Assay [10] shares this target. The assay is described as follows: NGF-blocking ELISA on coated human TrkA, 100 nM btNGF; mAb 10 nM. How it is done: as §1
The target is the same in assay [11]. The assay is described as follows: NGF-blocking ELISA on coated human TrkA, 100 nM btNGF; mAb 0.63 nM. How it is done:
as §1

T1 sequence (P04629 other isoform, or with tags, fused parts or gaps limits assumed): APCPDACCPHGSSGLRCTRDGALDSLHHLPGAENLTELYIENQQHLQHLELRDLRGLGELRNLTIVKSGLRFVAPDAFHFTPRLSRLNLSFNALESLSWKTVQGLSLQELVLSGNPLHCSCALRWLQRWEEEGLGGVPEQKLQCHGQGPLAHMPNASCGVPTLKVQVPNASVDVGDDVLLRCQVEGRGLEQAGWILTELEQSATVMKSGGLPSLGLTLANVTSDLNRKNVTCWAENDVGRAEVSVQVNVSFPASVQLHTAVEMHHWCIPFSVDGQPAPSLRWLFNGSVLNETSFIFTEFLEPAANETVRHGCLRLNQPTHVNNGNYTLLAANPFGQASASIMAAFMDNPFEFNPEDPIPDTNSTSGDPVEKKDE
T6 sequence (P04629 other isoform, or with tags, fused parts or gaps): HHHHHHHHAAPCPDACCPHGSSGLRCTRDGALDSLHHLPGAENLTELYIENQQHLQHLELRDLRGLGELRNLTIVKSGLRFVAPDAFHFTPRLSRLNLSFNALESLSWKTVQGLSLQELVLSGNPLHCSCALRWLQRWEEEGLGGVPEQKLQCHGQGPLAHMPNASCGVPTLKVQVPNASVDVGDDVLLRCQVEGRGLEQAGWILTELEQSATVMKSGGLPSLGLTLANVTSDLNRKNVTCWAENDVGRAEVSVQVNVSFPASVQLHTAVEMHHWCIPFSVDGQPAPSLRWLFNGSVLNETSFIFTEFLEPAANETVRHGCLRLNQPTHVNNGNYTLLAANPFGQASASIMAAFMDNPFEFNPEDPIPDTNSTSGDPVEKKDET
T4 sequence (Q3UFB7 other isoform, or with tags, fused parts or gaps limits assumed): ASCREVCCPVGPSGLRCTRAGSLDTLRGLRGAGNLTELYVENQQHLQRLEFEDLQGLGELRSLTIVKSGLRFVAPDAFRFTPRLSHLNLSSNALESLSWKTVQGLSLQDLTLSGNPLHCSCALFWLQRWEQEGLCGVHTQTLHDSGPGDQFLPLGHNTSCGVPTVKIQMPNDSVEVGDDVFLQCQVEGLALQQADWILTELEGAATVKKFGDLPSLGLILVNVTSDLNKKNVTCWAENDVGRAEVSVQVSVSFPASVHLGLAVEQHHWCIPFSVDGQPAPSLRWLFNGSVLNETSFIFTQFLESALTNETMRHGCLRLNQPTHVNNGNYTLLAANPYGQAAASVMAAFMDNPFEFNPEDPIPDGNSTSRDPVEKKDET
T7 sequence (P04629 other isoform, or with tags, fused parts or gaps): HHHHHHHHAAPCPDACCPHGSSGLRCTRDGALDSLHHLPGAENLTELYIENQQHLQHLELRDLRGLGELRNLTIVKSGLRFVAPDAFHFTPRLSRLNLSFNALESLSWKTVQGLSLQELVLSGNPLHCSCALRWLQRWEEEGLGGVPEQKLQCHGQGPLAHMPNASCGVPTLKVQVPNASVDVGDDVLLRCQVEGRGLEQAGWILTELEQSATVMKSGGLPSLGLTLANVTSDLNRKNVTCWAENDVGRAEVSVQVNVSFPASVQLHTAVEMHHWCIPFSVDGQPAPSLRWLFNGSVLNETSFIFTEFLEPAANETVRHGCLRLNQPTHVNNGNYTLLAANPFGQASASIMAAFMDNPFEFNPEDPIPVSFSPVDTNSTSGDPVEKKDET
T2 sequence (P35739 other isoform, or with tags, fused parts or gaps): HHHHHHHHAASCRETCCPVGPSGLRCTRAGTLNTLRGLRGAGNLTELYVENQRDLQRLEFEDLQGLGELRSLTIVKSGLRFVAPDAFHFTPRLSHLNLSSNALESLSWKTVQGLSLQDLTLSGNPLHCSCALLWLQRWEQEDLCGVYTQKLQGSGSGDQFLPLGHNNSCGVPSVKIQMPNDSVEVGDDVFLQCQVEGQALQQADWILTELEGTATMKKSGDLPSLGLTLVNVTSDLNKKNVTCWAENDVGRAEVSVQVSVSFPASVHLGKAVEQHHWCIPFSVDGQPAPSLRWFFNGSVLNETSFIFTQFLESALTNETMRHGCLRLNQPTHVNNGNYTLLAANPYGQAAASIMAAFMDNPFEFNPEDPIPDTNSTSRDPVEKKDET

B1: mAb A (antibody, human IgG4 S228P, kappa, F234A L235A, V domains shown)
VH: EVQLVESGGGLVKPGGSLRLSCAASGFTFSGVSINWVRQAPGKGLEWVSSETTSSGTIYYADSVKGRFTISRDNAKNSLYLQMNSLRAEDTAVYYCARSYYYGMDVWGQGTTVTVSS
VL: DIVMTQTPLSSPVTLGQPASISCRSSQSLVHRNGNTYLSWLQQRPGQPPRLLIYKISNRFSGVPDRFSGSGAGTDFTLKISRVEAEDVGVYYCMQARQFPLTFGGGTKVEIKR
notes: Human IgG4PAA/Kappa
On to B1, for which the “Absorbance 450 nm” value in [1] was 1.03; in assay [8], 1.09; in assay [9], 1.11; in assay [10], 0.2; in assay [11] it was 0.38. Moreover, the Kd (commonly the constant that tells how readily two partners part at equilibrium) in assay [2] worked out at 5.1 nM; in assay [3], 3.6 nM; in assay [4], 6.1 nM; in assay [5], 2.9 nM; in [6] it was 4.1 nM; in [7], 3.9 nM. Further, the koff (commonly a measure of how fast the partners let go of each other) in assay [2] stood at 0.00069 s⁻¹; in assay [3], 0.00069 s⁻¹; in [4] it was 0.00069 s⁻¹; in assay [5], 0.00061 s⁻¹; in assay [6], 0.00072 s⁻¹; in assay [7], 0.00069 s⁻¹. For the same molecule, the kon (in general, the second-order rate constant of association) in assay [2] was 140000 M⁻¹ s⁻¹; in assay [3], 190000 M⁻¹ s⁻¹; in assay [4], 110000 M⁻¹ s⁻¹; in [5], 210000 M⁻¹ s⁻¹; in assay [6], 180000 M⁻¹ s⁻¹; in assay [7], 180000 M⁻¹ s⁻¹.

B2: mAb B (antibody, human IgG4 S228P, kappa, F234A L235A)
heavy: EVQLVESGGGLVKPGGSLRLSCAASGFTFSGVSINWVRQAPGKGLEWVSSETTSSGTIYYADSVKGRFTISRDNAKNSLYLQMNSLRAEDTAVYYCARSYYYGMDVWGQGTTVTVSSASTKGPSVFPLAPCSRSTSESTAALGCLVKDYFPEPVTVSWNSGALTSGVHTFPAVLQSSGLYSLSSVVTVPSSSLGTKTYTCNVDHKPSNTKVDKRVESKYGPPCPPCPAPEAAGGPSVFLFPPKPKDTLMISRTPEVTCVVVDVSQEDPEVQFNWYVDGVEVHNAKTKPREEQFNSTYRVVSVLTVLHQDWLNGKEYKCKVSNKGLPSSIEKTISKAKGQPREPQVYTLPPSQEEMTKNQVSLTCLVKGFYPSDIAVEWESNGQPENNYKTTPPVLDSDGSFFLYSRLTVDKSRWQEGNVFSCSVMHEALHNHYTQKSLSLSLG
light: DIVMTQTPLSSPVTLGQPASISCRSSQSLVHRAGNTYLSWLQQRPGQPPRLLIYKISNRFSGVPDRFSGSGAGTDFTLKISRVEAEDVGVYYCMQARQFPLTFGGGTKVEIKRTVAAPSVFIFPPSDEQLKSGTASVVCLLNNFYPREAKVQWKVDNALQSGNSQESVTEQDSKDSTYSLSSTLTLSKADYEKHKVYACEVTHQGLSSPVTKSFNRGEC
notes: Human IgG4PAA/Kappa
Consider B2, for which the “Absorbance 450 nm” value in assay [1] was found to be 0.75; in [8], 0.87; in assay [9], 0.97; in assay [10], 0.14; in assay [11], 0.25. Further, the Kd in assay [2] turned out to be 9.1 nM; in [3], 6.9 nM; in assay [4], 10.5 nM; in assay [5], 5 nM; in [6], 6.8 nM; in [7], 6.7 nM. The koff in assay [2] came out at 0.0012 s⁻¹; in assay [3] it was 0.0013 s⁻¹; in assay [4], 0.0012 s⁻¹; in [5], 0.0011 s⁻¹; in assay [6], 0.0013 s⁻¹; in assay [7], 0.0013 s⁻¹. The kon in [2] was 130000 M⁻¹ s⁻¹; in assay [3], 190000 M⁻¹ s⁻¹; in assay [4] it was 120000 M⁻¹ s⁻¹; in assay [5] it was 220000 M⁻¹ s⁻¹; in [6] it was 190000 M⁻¹ s⁻¹; in [7] it was 190000 M⁻¹ s⁻¹.

B3: mAb C (antibody, human IgG4 S228P, kappa, F234A L235A)
heavy: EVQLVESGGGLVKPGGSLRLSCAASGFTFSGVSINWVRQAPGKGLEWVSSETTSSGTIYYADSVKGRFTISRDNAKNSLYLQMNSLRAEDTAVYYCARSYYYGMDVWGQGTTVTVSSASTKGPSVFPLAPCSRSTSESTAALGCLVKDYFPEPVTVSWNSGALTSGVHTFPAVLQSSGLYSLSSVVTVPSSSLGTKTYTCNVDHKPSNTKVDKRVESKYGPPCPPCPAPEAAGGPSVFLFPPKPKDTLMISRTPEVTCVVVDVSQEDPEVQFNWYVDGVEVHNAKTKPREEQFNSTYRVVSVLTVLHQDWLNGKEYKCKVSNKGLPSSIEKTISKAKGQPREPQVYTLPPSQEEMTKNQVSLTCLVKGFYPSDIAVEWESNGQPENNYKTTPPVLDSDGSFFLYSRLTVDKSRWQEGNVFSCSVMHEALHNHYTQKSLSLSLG
light: DIVMTQTPLSSPVTLGQPASISCRSSQSLVHRQGNTYLSWLQQRPGQPPRLLIYKISNRFSGVPDRFSGSGAGTDFTLKISRVEAEDVGVYYCMQARQFPLTFGGGTKVEIKRTVAAPSVFIFPPSDEQLKSGTASVVCLLNNFYPREAKVQWKVDNALQSGNSQESVTEQDSKDSTYSLSSTLTLSKADYEKHKVYACEVTHQGLSSPVTKSFNRGEC
notes: Human IgG4PAA/Kappa
Take B3: the “Absorbance 450 nm” value in [1] amounted to 0.92; in assay [8], 1.03; in assay [9] it was 0.97; in assay [10] it was 0.15; in assay [11] it was 0.3. For the same molecule, the Kd in [2] is 9 nM; in [3], 6.6 nM; in assay [4], 10.2 nM; in [5] it was 4.7 nM; in [6] it was 6.6 nM; in assay [7], 6.7 nM. Moreover, the koff came to 0.0012 s⁻¹ in assay [2]; 0.0013 s⁻¹ in assay [3]; 0.0012 s⁻¹ in [4]; 0.0011 s⁻¹ in assay [5]; 0.0013 s⁻¹ in assay [6]; 0.0013 s⁻¹ in assay [7]. For the same molecule, the kon in assay [2] was found to be 130000 M⁻¹ s⁻¹; in assay [3], 200000 M⁻¹ s⁻¹; in assay [4], 120000 M⁻¹ s⁻¹; in assay [5], 220000 M⁻¹ s⁻¹; in assay [6], 200000 M⁻¹ s⁻¹; in [7], 200000 M⁻¹ s⁻¹.
